Biological target: CD19 on KILR Raji cells (UniProt P15391)
Assay: cell-based or functional assay

CD19 on KILR Raji cells, sequence (P15391 20-556 limits assumed): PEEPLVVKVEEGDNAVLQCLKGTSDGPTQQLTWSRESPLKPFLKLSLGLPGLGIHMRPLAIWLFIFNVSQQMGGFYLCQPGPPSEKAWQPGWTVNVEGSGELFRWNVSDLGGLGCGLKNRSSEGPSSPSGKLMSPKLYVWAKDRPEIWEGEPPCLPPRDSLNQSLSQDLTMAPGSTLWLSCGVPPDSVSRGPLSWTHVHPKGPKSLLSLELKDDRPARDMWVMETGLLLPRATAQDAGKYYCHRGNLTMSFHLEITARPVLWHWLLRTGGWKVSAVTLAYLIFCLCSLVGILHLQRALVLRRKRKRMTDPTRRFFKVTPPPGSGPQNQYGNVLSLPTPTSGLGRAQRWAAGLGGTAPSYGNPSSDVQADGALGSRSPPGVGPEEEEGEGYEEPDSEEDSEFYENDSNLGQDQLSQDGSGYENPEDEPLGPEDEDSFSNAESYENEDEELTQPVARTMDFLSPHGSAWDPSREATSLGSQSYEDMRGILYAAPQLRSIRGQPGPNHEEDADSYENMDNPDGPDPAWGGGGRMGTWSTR

For blinatumomab (bispecific antibody), the EC50 of T cell-redirected killing of KILR Raji cells, +HSA (15 mg/mL) was 10.8 ng/mL and the EC50 of T cell-redirected killing of KILR Raji cells, -HSA was 2.85 ng/mL.

Reference: patent US20230032087A1
